Assay results published in the supplement of paper PMC11246515.
± gives the standard deviation of the averaged measurements.

Assay: total protein half-life in vivo (active degradation + dilution); higher = more stable protein
[1] = E. coli NCM3722 delta-clpP delta-lon delta-hslV, growth: N-lim chemostat, doubling time 6 h
[2] = E. coli NCM3722 delta-clpP, growth: N-lim chemostat, doubling time 6 h
[3] = E. coli NCM3722 delta-hslV, growth: N-lim chemostat, doubling time 6 h
[4] = E. coli NCM3722 delta-lon, growth: N-lim chemostat, doubling time 6 h
[5] = wild type E. coli NCM3722, growth: C-lim chemostat, doubling time 3 h
[6] = wild type E. coli NCM3722, growth: C-lim chemostat, doubling time 6 h
[7] = wild type E. coli NCM3722, growth: C-lim chemostat, doubling time 12 h
[8] = wild type E. coli NCM3722, growth: N-lim chemostat, doubling time 6 h
[9] = wild type E. coli NCM3722, growth: N-lim chemostat, doubling time 12 h
[10] = wild type E. coli NCM3722, growth: P-lim chemostat, doubling time 6 h
[11] = wild type E. coli NCM3722, growth: P-lim chemostat, doubling time 12 h
[12] = E. coli NCM3722 delta-smpB, growth: N-lim chemostat, doubling time 6 h

Row | Sequence | total protein half-life in vivo [1] | total protein half-life in vivo [2] | total protein half-life in vivo [3] | total protein half-life in vivo [4] | total protein half-life in vivo [5] | total protein half-life in vivo [6] | total protein half-life in vivo [7] | total protein half-life in vivo [8] | total protein half-life in vivo [9] | total protein half-life in vivo [10] | total protein half-life in vivo [11] | total protein half-life in vivo [12]
1 | MHFRAITRIVGLLVILFSGTMIIPGLVALIYRDGAGRAFTQTFFVALAIGSMLWWPNRKEKGELKSREGFLIVVLFWTVLGSVGALPFIFSESPNLTITDAFFESFSGLTTTGATTLVGLDSLPHAILFYRQMLQWFGGMGIIVLAVAILPILGVGGMQLYRAEMPGPLKDNKMRPRIAETAKTLWLIYVLLTVACALALWFAGMDAFDAIGHSFATIAIGGFSTHDASIGYFDSPTINTIIAIFLLISGCNYGLHFSLLSGRSLKVYWRDPEFRMFIGVQFTLVVICTLVLWFHNVYSSALMTINQAFFQVVSMATTAGFTTDSIARWPLFLPVLLLCSAFIGGCAGSTGGGLKVIRILLLFKQGNRELKRLVHPNAVYSIKLGNRALPERILEAVWGFFSAYALVFIVSMLAIIATGVDDFSAFASVVATLNNLGPGLGVVADNFTSMNPVAKWILIANMLFGRLEVFTLLVLFTPTFWRE [P0AFZ7] | 7.11 h | 6.5 h | 6.15 ± 0.27 h | 5.5 ± 1.2 h | 3.51 ± 0.23 h | 6.13 ± 0.096 h | 12.8 ± 1.7 h | 6.77 ± 0.85 h | 12.3 ± 0.14 h | 5.4 h | 11.4 ± 0.63 h | 
2 | MHGNSEMQKINQTSAMPEKTDVHWSGRFSVAPMLDWTDRHCRYFLRLLSRNTLLYTEMVTTGAIIHGKGDYLAYSEEEHPVALQLGGSDPAALAQCAKLAEARGYDEINLNVGCPSDRVQNGMFGACLMGNAQLVADCVKAMRDVVSIPVTVKTRIGIDDQDSYEFLCDFINTVSGKGECEMFIIHARKAWLSGLSPKENREIPPLDYPRVYQLKRDFPHLTMSINGGIKSLEEAKAHLQHMDGVMVGREAYQNPGILAAVDREIFGSSDTDADPVAVVRAMYPYIERELSQGTYLGHITRHMLGLFQGIPGARQWRRYLSENAHKAGADINVLEHALKLVADKR | 4.26 ± 0.35 h | 4.49 ± 1.1 h | 4.51 ± 0.81 h | 4.31 ± 0.14 h | 3.01 ± 0.14 h | 5.432 ± 0.022 h | 9.77 ± 1.5 h | 4.2 ± 0.5 h | 6.88 ± 0.21 h | 6.57 ± 1.6 h | 10.9 ± 1.2 h | 4.07 ± 0.18 h
3 | MHHATPLITTIVGGLVLAFILGMLANKLRISPLVGYLLAGVLAGPFTPGFVADTKLAPELAELGVILLMFGVGLHFSLKDLMAVKAIAIPGAIAQIAVATLLGMALSAVLGWSLMTGIVFGLCLSTASTVVLLRALEERQLIDSQRGQIAIGWLIVEDLVMVLTLVLLPAVAGMMEQGDVGFATLAVDMGITIGKVIAFIAIMMLVGRRLVPWIMARSAATGSRELFTLSVLALALGVAFGAVELFDVSFALGAFFAGMVLNESELSHRAAHDTLPLRDAFAVLFFVSVGMLFDPLILIQQPLAVLATLAIILFGKSLAAFFLVRLFGHSQRTALTIAASLAQIGEFAFILAGLGMALNLLPQAGQNLVLAGAILSIMLNPVLFALLEKYLAKTETLEEQTLEEAIEEEKQIPVDICNHALLVGYGRVGSLLGEKLLASDIPLVVIETSRTRVDELRERGVRAVLGNAANEEIMQLAHLECAKWLILTIPNGYEAGEIVASARAKNPDIEIIARAHYDDEVAYITERGANQVVMGEREIARTMLELLETPPAGEVVTG | 7.0037 ± 0.0035 h | 6.7 ± 0.41 h | 6.3 ± 0.52 h | 6.24 ± 1.1 h | > 4 h | 5.87 ± 0.64 h |  | 5.84 ± 0.9 h | 12.7 ± 0.69 h | 6.44 ± 0.68 h | 12.6 ± 0.86 h | 6.31 ± 0.61 h
4 | MHINIAWQDVDTVLLDMDGTLLDLAFDNYFWQKLVPETWGAKNGVTPQEAMEYMRQQYHDVQHTLNWYCLDYWSEQLGLDICAMTTEMGPRAVLREDTIPFLEALKASGKQRILLTNAHPHNLAVKLEHTGLDAHLDLLLSTHTFGYPKEDQRLWHAVAEATGLKAERTLFIDDSEAILDAAAQFGIRYCLGVTNPDSGIAEKQYQRHPSLNDYRRLIPSLM | 4.35 ± 0.11 h |  |  | 2.37 ± 2.1 h | 0.973 ± 0.063 h | 0.971 h |  |  |  | 0.56 h | 0.544 h | 
5 | MHKFTKALAAIGLAAVMSQSAMAENLKLGFLVKQPEEPWFQTEWKFADKAGKDLGFEVIKIAVPDGEKTLNAIDSLAASGAKGFVICTPDPKLGSAIVAKARGYDMKVIAVDDQFVNAKGKPMDTVPLVMMAATKIGERQGQELYKEMQKRGWDVKESAVMAITANELDTARRRTTGSMDALKAAGFPEKQIYQVPTKSNDIPGAFDAANSMLVQHPEVKHWLIVGMNDSTVLGGVRATEGQGFKAADIIGIGINGVDAVSELSKAQATGFYGSLLPSPDVHGYKSSEMLYNWVAKDVEPPKFTEVTDVVLITRDNFKEELEKKGLGGK | 5.11 ± 0.82 h | 5.55 ± 0.61 h | 6.44 ± 0.68 h | 6.58 ± 0.93 h | 3.11 ± 0.2 h | 6.07 ± 0.47 h | 12.2 ± 2.1 h | 5.99 ± 0.45 h | 12.3 ± 3.3 h | 5.91 ± 0.24 h | 13.1 ± 0.49 h | 6.54 ± 1.9 h
6 | MHLLVHPNGSKYWRLQYRYEGKQKMLALGVYPEITLADARVRRDEARKLLANGVDPGDKKKNDKVEQSKARTFKEVAIEWHGTNKKWSEDHAHRVLKSLEDNLFAALGERNIAELKTRDLLAPIKAVEMSGRLEVAARLQQRTTAIMRYAVQSGLIDYNPAQEMAGAVASCNRQHRPALELKRIPELLTKIDSYTGRPLTRWAIELTLLIFIRSSELRFARWSEIDFEASIWTIPPEREPIPGVKHSHRGSKMRTTHLVPLSTQALAILKQIKQFYGAHDLIFIGDHDSHKPMSENTVNSALRVMGYDTKVEVCGHGFRTMACSSLVESGLWSRDAVERQMSHMARNSVRAAYIHKAEHLEERRLMLQWWADFLDVNRERFISPFEYAKINNPLKQ | 5.06 ± 0.41 h | 4.91 h |  |  |  | 5.13 h | 13.3 h |  |  | 4.82 h |  | 2.44 h
